Values of other authors in paper PMC3902607.

Biological target: RXFP2 (Homo sapiens) (UniProt Q8WXD0)
Sequence of UniProt Q8WXD0 (Q8WXD0 whole entry): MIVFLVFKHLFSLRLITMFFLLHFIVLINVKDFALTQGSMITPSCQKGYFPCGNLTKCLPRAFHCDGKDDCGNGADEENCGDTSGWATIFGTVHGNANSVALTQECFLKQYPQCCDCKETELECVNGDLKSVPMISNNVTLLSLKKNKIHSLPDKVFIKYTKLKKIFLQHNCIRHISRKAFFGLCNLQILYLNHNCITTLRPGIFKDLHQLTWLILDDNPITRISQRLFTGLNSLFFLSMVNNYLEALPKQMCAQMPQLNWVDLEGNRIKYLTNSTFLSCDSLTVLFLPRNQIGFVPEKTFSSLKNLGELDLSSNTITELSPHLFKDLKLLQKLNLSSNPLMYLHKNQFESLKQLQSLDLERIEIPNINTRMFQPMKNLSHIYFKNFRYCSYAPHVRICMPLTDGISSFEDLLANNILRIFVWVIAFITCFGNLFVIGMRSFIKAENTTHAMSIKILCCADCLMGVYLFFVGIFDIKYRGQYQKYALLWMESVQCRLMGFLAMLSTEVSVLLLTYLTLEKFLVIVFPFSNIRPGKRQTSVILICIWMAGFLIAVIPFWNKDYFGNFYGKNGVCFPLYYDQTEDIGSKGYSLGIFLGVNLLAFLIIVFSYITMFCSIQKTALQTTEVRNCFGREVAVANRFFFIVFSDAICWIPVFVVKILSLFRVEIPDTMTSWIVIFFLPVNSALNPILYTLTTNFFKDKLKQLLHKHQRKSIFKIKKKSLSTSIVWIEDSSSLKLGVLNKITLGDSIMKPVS

For INSL3 (from UniProt P51460), which Kd is on record?
Its Kd is under 1 nM.
